Assay results from publication PMC3970758, “A conserved MCM single-stranded DNA binding element is essential for replication initiation”.
Numbering of substitutions follows the chain as printed.

T1: PfMCMN R124A (Pyrococcus furiosus, UniProt Q8U3I4 1-256, R124A)
T1 sequence: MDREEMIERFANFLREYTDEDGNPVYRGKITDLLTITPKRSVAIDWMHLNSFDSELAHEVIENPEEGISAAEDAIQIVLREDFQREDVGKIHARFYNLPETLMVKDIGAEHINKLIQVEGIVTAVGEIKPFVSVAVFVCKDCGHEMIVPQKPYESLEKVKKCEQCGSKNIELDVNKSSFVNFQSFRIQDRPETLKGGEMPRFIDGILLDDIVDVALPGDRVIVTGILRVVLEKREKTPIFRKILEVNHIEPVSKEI

T2: PfMCMN R186A (Pyrococcus furiosus, UniProt Q8U3I4 1-256, R186A)
T2 sequence: T1 sequence with A124R, R186A

T3: PfMCMN K129A (Pyrococcus furiosus, UniProt Q8U3I4 1-256, K129A)
T3 sequence: T1 sequence with A124R, K129A

T4: PfMCMN F202A (Pyrococcus furiosus, UniProt Q8U3I4 1-256, F202A)
T4 sequence: T1 sequence with A124R, F202A

T5: PfMCMN K233A (Pyrococcus furiosus, UniProt Q8U3I4 1-256, K233A)
T5 sequence: T1 sequence with A124R, K233A

T6: PfMCMN R124A/R186A (Pyrococcus furiosus, UniProt Q8U3I4 1-256, R124A;R186A)
T6 sequence: T1 sequence with R186A

B1: 26-mer dsDNA (dsDNA)
DNA 1: ATGGCAGATCTCAATTGGATATCGGC
DNA 2: GCCGATATCCAATTGAGATCTGCCAT

Experiments:
[1] = target: T1, PfMCMN R124A; assay: EMSA; 5 mM Mg2+; EMSA: 20 mM HEPES pH 7.6, 200 mM NaCl, 5 mM MgCl2, 5 mM bME, 25 C, 30 min, 160 nM DNA; 4-20% TBE PAGE; conditions: protein: recombinant; tags: His6-SUMO removed by Ulp1; label: 5'-fluorescein
[2] = target: T2, PfMCMN R186A; assay: as above; conditions: protein: recombinant; tags: His6-SUMO removed by Ulp1; label: 5'-fluorescein
[3] = target: T3, PfMCMN K129A; assay: as above; conditions: protein: recombinant; tags: His6-SUMO removed by Ulp1; label: 5'-fluorescein
[4] = target: T4, PfMCMN F202A; assay: as above; conditions: protein: recombinant; tags: His6-SUMO removed by Ulp1; label: 5'-fluorescein
[5] = target: T5, PfMCMN K233A; assay: as above; conditions: protein: recombinant; tags: His6-SUMO removed by Ulp1; label: 5'-fluorescein
[6] = target: T6, PfMCMN R124A/R186A; assay: EMSA; 5 mM Mg2+; protein 54-270 uM; EMSA: 20 mM HEPES pH 7.6, 200 mM NaCl, 5 mM MgCl2, 5 mM bME, 25 C, 30 min, 160 nM DNA; 4-20% TBE PAGE; conditions: protein: recombinant; tags: His6-SUMO removed by Ulp1; label: 5'-fluorescein
[7] = target: T1, PfMCMN R124A; assay: EMSA; 5 mM Mg2+; EMSA: 20 mM HEPES pH 7.6, 200 mM NaCl, 5 mM MgCl2, 5 mM bME, 25 C, 30 min, 160 nM DNA; 4-20% TBE PAGE; conditions: protein: recombinant; tags: His6-SUMO removed by Ulp1; label: 5'-fluorescein on strand 1; blunt
[8] = target: T2, PfMCMN R186A; assay: as above; conditions: protein: recombinant; tags: His6-SUMO removed by Ulp1; label: 5'-fluorescein on strand 1; blunt
[9] = target: T3, PfMCMN K129A; assay: as above; conditions: protein: recombinant; tags: His6-SUMO removed by Ulp1; label: 5'-fluorescein on strand 1; blunt
[10] = target: T6, PfMCMN R124A/R186A; assay: EMSA; 5 mM Mg2+; protein 10-40 uM; EMSA: 20 mM HEPES pH 7.6, 200 mM NaCl, 5 mM MgCl2, 5 mM bME, 25 C, 30 min, 160 nM DNA; 4-20% TBE PAGE; conditions: protein: recombinant; tags: His6-SUMO removed by Ulp1; label: 5'-fluorescein on strand 1; blunt

Binder	binding signal [1] [fold reduction vs WT]	binding signal [2] [fold reduction vs WT]	binding signal [3] [fold reduction vs WT]	binding result [4]	binding result [5]	binding signal [6] [fold reduction vs WT]	binding result [7]	binding result [8]	binding result [9]	binding signal [10] [fold reduction vs WT]
TTTTTTTTTTTTTTTTTTTTTTTTTTTTTTTTTTTTTTTT (ssDNA) [T40 ssDNA]	7	6	4	binds	binds	25				
B1							binds	binds	binds	3
